Assay [1] has as its target complex of vitamin D binding protein with 25-hydroxyvitamin D3 (DBP:25(OH)D3) (human) (UniProt P02774). Briefly: MST, NT-647-labelled DBP (50 nM) with VD3 (50 nM), megalin fragment titrated.
For assay [2], the target named is vitamin D binding protein (DBP) alone, without added vitamin D metabolite (human) (UniProt P02774). The experiment in a line: MST, NT-647-labelled DBP (50 nM), megalin fragment titrated, absence of 25-OH vitamin D3; microscale thermophoresis; NT-647-labelled DBP, purified soluble M1 titrated 0.488-1000 nmol/L; absence of 25-OH vitamin D3.

What is called Kd is the equilibrium constant for the complex coming apart.

complex of vitamin D binding protein with 25-hydroxyvitamin D3 (DBP:25(OH)D3) (human), sequence (P02774 17-474 limits assumed, one chain of several): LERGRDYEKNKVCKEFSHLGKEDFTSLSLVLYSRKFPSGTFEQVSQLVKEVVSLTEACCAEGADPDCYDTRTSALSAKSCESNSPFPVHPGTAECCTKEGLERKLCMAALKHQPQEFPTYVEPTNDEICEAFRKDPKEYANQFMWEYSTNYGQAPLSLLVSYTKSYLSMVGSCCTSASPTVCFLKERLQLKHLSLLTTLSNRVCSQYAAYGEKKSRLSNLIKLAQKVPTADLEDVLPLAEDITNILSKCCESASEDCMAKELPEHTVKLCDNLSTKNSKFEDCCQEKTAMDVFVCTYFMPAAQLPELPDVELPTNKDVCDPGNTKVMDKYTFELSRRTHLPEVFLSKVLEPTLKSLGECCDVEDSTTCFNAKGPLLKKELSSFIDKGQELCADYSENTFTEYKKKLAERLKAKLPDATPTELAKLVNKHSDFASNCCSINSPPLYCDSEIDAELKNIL
vitamin D binding protein (DBP) alone, without added vitamin D metabolite (human), sequence (P02774 17-474 limits assumed): as the sequence (P02774 17-474 limits assumed, one chain of several) above

With “soluble recombinant megalin M1 fragment (amino acids 26 to 386 of human LRP2/megalin, C-terminal 6x His tag) (from UniProt P98164 26-386) (receptor)”, the Kd worked out at 45.6 nM in assay [1] and 442 nM in assay [2].
